Laboratory results from patent publication US5262522, “Receptor for oncostatin M and leukemia inhibitory factor” (Immunex Corporation, dated 1993).
Values belong to the binder of their own block, whether it stands above or below them.

B1: Receptor comprising gp130 (B10G) and LIF-R (pHLIFR-65) co-expressed on COS-7 cells (receptor)
chain 1: ELLDPCGYISPESPVVQLHSNFTAVCVLKEKCMDYFHVNANYIVWKTNHFTIPKEQYTIINRTASSVTFTDIASLNIQLTCNILTFGQLEQNVYGITIISGLPPEKPKNLSCIVNEGKKMRCEWDGGRETHLETNFTLKSEWATHKFADCKAKRDTPTSCTVDYSTVYFVNIEVWVEAENALGKVTSDHINFDPVYKVKPNPPHNLSVINSEELSSILKLTWTNPSIKSVIILKYNIQYRTKDASTWSQIPPEDTASTRSSFTVQDLKPFTEYVFRIRCMKEDGKGYWSDWSEEASGITYEDRPSKAPSFWYKIDPSHTQGYRTVQLVWKTLPPFEANGKILDYEVTLTRWKSHLQNYTVNATKLTVNLTNDRYLATLTVRNLVGKSDAAVLTIPACDFQATHPVMDLKAFPKDNMLWVEWTTPRESVKKYILEWCVLSDKAPCITDWQQEDGTVHRTYLRGNLAESKCYLITVTPVYADGPGSPESIKAYLKQAPPSKGPTVRTKKVGKNEAVLEWDQLPVDVQNGFIRNYTIFYRTIIGNETAVNVDSSHTEYTLSSLTSDTLYMVRMAAYTDEGGKDGPEFTFTTPKFAQGEIEAIVVPVCLAFLLTTLLGVLFCFNKRDLIKKHIWPNVPDPSKSHIAQWSPHTPPRHNFNSKDQMYSDGNFTDVSVVEIEANDKKPFPEDL
chain 2: QKKGAPHDLKCVTNNLQVWNCSWKAPSGTGRGTDYEVCIENRSRSCYQLEKTSIKIPALSHGDYEITINSLHDFGSSTSKFTLNEQNVSLIPDTPEILNLSADFSTSTLYLKWNDRGSVFPHRSNVIWEIKVLRKESMELVKLVTHNTTLNGKDTLHHWSWASDMPLECAIHFVEIRCYIDNLHFSGLEEWSDWSPVKNISWIPDSQTKVFPQDKVILVGSDITFCCVSQEKVLSALIGHTNCPLIHLDGENVAIKIRNISVSASSGTNVVFTTEDNIFGTVIFAGYPPDTPQQLNCETHDLKEIICSWNPGRVTALVGPRATSYTLVESFSGKYVRLKRAEAPTNESYQLLFQMLPNQEIYNFTLNAHNPLGRSQSTILVNITEKVYPHTPTSFKVKDINSTAVKLSWHLPGNFAKINFLCEIEIKKSNSVQEQRNVTIKGVENSSYLVALDKLNPYTLYTFRIRCSTETFWKWSKWSNKKQHLTTEASPSKGPDTWREWSSDGKNLIIYWKPLPINEANGKILSYNVSCSSDEETQSLSEIPDPQHKAEIRLDKNDYIISVVAKNSVGSSPPSKIASMEIPNDDLKIEQVVGMGKGILLTWHYDPNMTCDYVIKWCNSSRSEPCLMDWRKVPSNSTETVIESDEFRPGIRYNFFLYGCRNQGYQLLRSMIGYIEELAPIVAPNFTVEDTSADSILVKWEDIPVEELRGFLRGYLFYFGKGERDTSKMRVLESGRSDIKVKNITDISQKTLRIADLQGKTSYHLVLRAYTDGGVGPEKSMYVVTKENSVGLIIAILIPVAVAVIVGVVTSILCYRKREWIKETFYPDIPNPENCKALQFQKSVCEGSSALKTLEMNPCTPNNVEVLETRSAFPKIEDTEIISPVAERPEDRSDAEPENHVVVSYCPPIIEEEIPNPAADEAGGTAQVIYIDVQSMYQPQAKPEEKKKKSRSSRSKI
B4: Recombinant human leukemia inhibitory factor (LIF) (ligand)
chain: not shown
modifications: radioiodinated (125I) where used as the labelled ligand; non-radiolabeled where used as competitor

Assays:
[1] = molecular target: B4; assay: Scatchard analysis of 125I-LIF binding to COS-7 cells co-transfected with B10G and pHLIFR-65 (curve A), phthalate oil separation
Experimental: (§1) Host cells transfected with vector(s) encoding LIF-R or gp130 as described below were assayed for the ability to bind LIF. The host cells were the monkey kidney cell line designated COS-7, described by Glutzman, *Cell* 23:175 (1981). In separate transfections, COS-7 cells were transfected with the following combinations of vectors. The different types of transfected cells (and non-transfected control cells) are designated A–F as shown below, and the curves representing the LIF-binding assay data for each transfected or control cell type are also labeled A–F in FIG. 1.
(§2) Briefly, the COS-7 host cells were released from 10 cm tissue culture plates two days after transfection by incubation in non-enzymatic cell dissociation buffer (Sigma) at 37° C. for 30–60 minutes. Cells were then washed with the above-described binding medium and resuspended in binding medium at 5 ×10^6 cells/ml. 50 μl aliquots of the cells were incubated with serial dilutions of ^125I-LIF at room temperature for one hour with agitation (in the presence or absence of a 200-fold excess of unlabeled LIF) in a total volume of 150 μl. The unlabeled LIF allowed for calculation of the non-specific background binding of LIF. […]

[2] = molecular target: B4; assay: Scatchard analysis of 125I-LIF binding to COS-7 cells transfected with pHLIFR-65 and CAV (curve B, site 2), phthalate oil separation
Experimental: as §1, §2

[3] = molecular target: B4; assay: 125I-LIF binding to COS-7 cells transfected with B10G and CAV (curve F against curve E), phthalate oil separation, Scatchard
Experimental: as §1, §2

[4] = molecular target: B1; assay: Scatchard analysis of 125I-LIF binding to co-transfected COS-7 cells preincubated with oncostatin M as competitor (curve C)
Experimental: as §1, §2

Binder: B1
Kd [1]: 0.9 nM

Kd [2]: 2.4 nM
B2: Single-polypeptide chain human LIF-R encoded by pHLIFR-65, expressed on COS-7 cells (receptor)
chain: QKKGAPHDLKCVTNNLQVWNCSWKAPSGTGRGTDYEVCIENRSRSCYQLEKTSIKIPALSHGDYEITINSLHDFGSSTSKFTLNEQNVSLIPDTPEILNLSADFSTSTLYLKWNDRGSVFPHRSNVIWEIKVLRKESMELVKLVTHNTTLNGKDTLHHWSWASDMPLECAIHFVEIRCYIDNLHFSGLEEWSDWSPVKNISWIPDSQTKVFPQDKVILVGSDITFCCVSQEKVLSALIGHTNCPLIHLDGENVAIKIRNISVSASSGTNVVFTTEDNIFGTVIFAGYPPDTPQQLNCETHDLKEIICSWNPGRVTALVGPRATSYTLVESFSGKYVRLKRAEAPTNESYQLLFQMLPNQEIYNFTLNAHNPLGRSQSTILVNITEKVYPHTPTSFKVKDINSTAVKLSWHLPGNFAKINFLCEIEIKKSNSVQEQRNVTIKGVENSSYLVALDKLNPYTLYTFRIRCSTETFWKWSKWSNKKQHLTTEASPSKGPDTWREWSSDGKNLIIYWKPLPINEANGKILSYNVSCSSDEETQSLSEIPDPQHKAEIRLDKNDYIISVVAKNSVGSSPPSKIASMEIPNDDLKIEQVVGMGKGILLTWHYDPNMTCDYVIKWCNSSRSEPCLMDWRKVPSNSTETVIESDEFRPGIRYNFFLYGCRNQGYQLLRSMIGYIEELAPIVAPNFTVEDTSADSILVKWEDIPVEELRGFLRGYLFYFGKGERDTSKMRVLESGRSDIKVKNITDISQKTLRIADLQGKTSYHLVLRAYTDGGVGPEKSMYVVTKENSVGLIIAILIPVAVAVIVGVVTSILCYRKREWIKETFYPDIPNPENCKALQFQKSVCEGSSALKTLEMNPCTPNNVEVLETRSAFPKIEDTEIISPVAERPEDRSDAEPENHVVVSYCPPIIEEEIPNPAADEAGGTAQVIYIDVQSMYQPQAKPEEKKKKSRSSRSKI

binding result [3]: no binding
B3: Human gp130 encoded by plasmid B10G, expressed on COS-7 cells (receptor)
chain: ELLDPCGYISPESPVVQLHSNFTAVCVLKEKCMDYFHVNANYIVWKTNHFTIPKEQYTIINRTASSVTFTDIASLNIQLTCNILTFGQLEQNVYGITIISGLPPEKPKNLSCIVNEGKKMRCEWDGGRETHLETNFTLKSEWATHKFADCKAKRDTPTSCTVDYSTVYFVNIEVWVEAENALGKVTSDHINFDPVYKVKPNPPHNLSVINSEELSSILKLTWTNPSIKSVIILKYNIQYRTKDASTWSQIPPEDTASTRSSFTVQDLKPFTEYVFRIRCMKEDGKGYWSDWSEEASGITYEDRPSKAPSFWYKIDPSHTQGYRTVQLVWKTLPPFEANGKILDYEVTLTRWKSHLQNYTVNATKLTVNLTNDRYLATLTVRNLVGKSDAAVLTIPACDFQATHPVMDLKAFPKDNMLWVEWTTPRESVKKYILEWCVLSDKAPCITDWQQEDGTVHRTYLRGNLAESKCYLITVTPVYADGPGSPESIKAYLKQAPPSKGPTVRTKKVGKNEAVLEWDQLPVDVQNGFIRNYTIFYRTIIGNETAVNVDSSHTEYTLSSLTSDTLYMVRMAAYTDEGGKDGPEFTFTTPKFAQGEIEAIVVPVCLAFLLTTLLGVLFCFNKRDLIKKHIWPNVPDPSKSHIAQWSPHTPPRHNFNSKDQMYSDGNFTDVSVVEIEANDKKPFPEDL

Binder: B4
KD after preincubation of the cells with non-radiolabeled oncostatin M [4]: 4.2 nM
